Biological target: caveolin-3 (Cav3) (mouse (endogenous in cardiomyocytes)) (UniProt P51637)
Assay: co-IP; endogenous proteins in extracts of mouse cardiomyocytes / heart (WT; for actin-Cav3 also SM22α KO); IgG as negative control; Western blot

UniProt P51637, sequence (P51637 whole entry): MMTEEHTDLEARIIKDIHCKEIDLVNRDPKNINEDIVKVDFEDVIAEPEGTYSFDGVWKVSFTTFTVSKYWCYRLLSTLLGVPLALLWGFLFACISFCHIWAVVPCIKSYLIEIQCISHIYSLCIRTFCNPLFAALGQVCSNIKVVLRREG

## α-actin (from UniProt P68033 1-377) (natural protein)
  reduction of the co-precipitate in SM22α KO against WT cardiomyocytes: 34%

Source: PMC9292107
